# Test: yeast display, Sf9 membrane polyspecificity reagent, FACS + sequencing; frameworks hold sequencing errors
# Procedure, shortened: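 Polyreactivity labels are assigned by the sorting gate from which each nanobody was recovered. The gates were low and high (top ~1%), set on anti-HA fluorescence for expression and streptavidin fluorescence for reagent binding. Before sorting, galactose-induced (36–48 hours) yeast display cells were stained for 1 hour at 4 °C with 10% biotinylated, detergent-solubilized Sf9 membrane reagent.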
row,Sequence,polyreactivity (PSR sort gate)
1,QVQLVESGGGLVQAGGSLRLSCAASGRTFRYNAMGWYRQAPGKERELVAAISGRGSSTYYADSVKGRFTISRDNAKNTVYLQMNSLKPEDTAVYYCAADRFRLYVGGWWYDYWGQGTQVTVSS,high polyreactivity
2,QVQLVESGGGLVQAGGSLRLSCAASGRTFRYNAMGWYRQAPGKERELVAAISGRGSSTYYSDSVKGRFTISRDNAKNTVYLQMNSLTPEDTAVYYCAALPASVRRPAWHDYWGQGTQVTVSS,high polyreactivity
3,QVQLVESGGGLVQAGGSLRLSCAASGRTFRYNAMGWYRQAPGKERELVADITFSGGNTYYADSVKGRFTISRDNAKNTVYLQMNSLKPEDTAVYYCAKRRYYTGGMDYWGQGTQVTVSS,low polyreactivity
4,QVQLVESGGGLVQAGGSLRLSCAASGRTFRYNAMGWYRQAPGKERELVAGITWRGGRTYYADSVKGRFTISRDNAKNTVYLQMNSLKPEDTAVYYCNTAGYYWLHYTMDYWGQGTQVTVSS,high polyreactivity
5,QVQLVESGGGLVQAGGSLRLSCAASGRTFRYNAMGWYRQAPGKERELVASIRYSSASTYYADSVKGRFTISRDNAKNTVYLQMNSLKPEDTAVYYCAASWYPVIVGYDYWGQGTQVTVSS,high polyreactivity
6,QVQLVESGGGLVQAGGSLRLSCAASGRTFRYNAMGWYRQAPGKERELVATISSSGGSTSYADSVKGRFTISRDNAKNTVYLQMNSLKREDTAVYYCNKRRLVAPGNGMDSWGQGTQVTVSS,low polyreactivity
7,QVQLVESGGGLVQAGGSLRLSCAASGRTFRYNTMGWYRQAPGKERELVAITYRGGSTYADSVKGRFTISRDNAKNTVYLQMNSLKPEDTAVYYCAKVVNWCRGYGGTDHYYWGQGTQVTVSS,high polyreactivity
8,QVQLVESGGGLVQAGGSLRLSCAASGRTFRYNVMGWYRQAPGKERELVAAITYSGGRTYYADSVKGRFTISRDNVKNTVYLQMNSLKPEDTAVYYCAALSAPGYGRYNYWGQGTQVTVSS,high polyreactivity
9,QVQLVESGGGLVQAGGSLRLSCAASGRTFRYYAKGWYRPAPGTERELVADISSTGRTYYADSVKGRFTISRDNAKNTVYLQMNSLKPEDTAVYYCNADYFFEFDYWGQGTQVTVSS,low polyreactivity
10,QVQLVESGGGLVQAGGSLRLSCAASGRTFRYYAMAWYRQAPGKERELVAAIRSGGITNYADSVKGRFTISLDNAKYTVYLQMNRLKPEDTAVYYCAQAIRGHYWGQGTQVTVSS,high polyreactivity
11,QVQLVESGGGLVQAGGSLRLSCAASGRTFRYYAMGWYREAPGKERELVAAISSSGDRTYYADSVKGRFTISRDNAKNTVYVQMNSLKPEDTAVYYCAKDSYRRYWGQGTQVTVSS,high polyreactivity
12,QVQLVESGGGLVQAGGSLRLSCAASGRTFRYYAMGWYRKAPGKERELVATISKSGGSTYYADSVKGRFTISRDNAKNTVYLQMNSLKPEDTAVYYCAAVGPYRWYDYWGQGTQVTVSS,high polyreactivity
13,QVQLVESGGGLVQAGGSLRLSCAASGRTFRYYAMGWYRPAPGKERELVAAITISSGSTYYADSVKGRFTISRDNAKNTVYLQMNSLKPEDTAVYYCAATRRYHFDYWGQGTQVTVSS,high polyreactivity
14,QVQLVESGGGLVQAGGSLRLSCAASGRTFRYYAMGWYRQAPGKEREFVAAITSRSSRTYYADSVKGRFTISRDTAKNTVYLQMNSLKPEDTAVYYCARGSELGYYAWVYYWGQGTQVTVSS,high polyreactivity
15,QVQLVESGGGLVQAGGSLRLSCAASGRTFRYYAMGWYRQAPGKERELVAAISSSGDRTYYADSVKGRFTISRDNAKNTVYLQMNSLKPEDTAVYYCAADRGARGDYWGQGTQVTVSS,high polyreactivity
16,QVQLVESGGGLVQAGGSLRLSCAASGRTFRYYAMGWYRQAPGKERELVAAISYSGGSTYYADSVKGRFTISRDNAKNTVYLQMNSLKPEDTAVYYCAAGPWHYKYSLRGWGYYWGQGTQVTVSS,high polyreactivity
17,QVQLVESGGGLVQAGGSLRLSCAASGRTFRYYAMGWYRQAPGKERELVAAITGSGGSTYYADSVKGRFTISRDNAKNTVYLQMNSLKPEDTAVYYCATRWALRWRGGYWGQGTQVTVSS,high polyreactivity
18,QVQLVESGGGLVQAGGSLRLSCAASGRTFRYYAMGWYRQAPGKERELVAAITSGGSTYYADSVKGRFTISRDNAKNTVYLQMNSLKPEDTAVYYDYWGQGTQVTVSS,low polyreactivity
19,QVQLVESGGGLVQAGGSLRLSCAASGRTFRYYDMGWYRQSPGKERELVARISISGAGTYYADSVKVRFTISRDNAKNNVYLQMNSLKPEDTAVYYCAADLFWWQKTNSGGDYWGQGTQVTVSS,low polyreactivity
20,QVQLVESGGGLVQAGGSLRLSCAASGRTFRYYTMGWYRPAPGKEREFVSSISWNGGSTYYADSVKGRFTISRDNAKNTVYLQIKSLKPEDTAVYYCSADDPYRVYRGPYGYWGQCTQVTVSS,high polyreactivity
21,QVQLVESGGGLVQAGGSLRLSCAASGRTFRYYTMGWYRQAPGKEREFVAAISSTGGTYYADSVKGRFTISRDNAKNTVYLQMNCLIPEDTAVYYCAATFIQVVVNVQLYDYDYWGQGTQVTVSS,low polyreactivity
22,QVQLVESGGGLVQAGGSLRLSCAASGRTFRYYTMGWYRQAPGKEREFVAAISSTGGTYYADSVKGRFTISRDNAKNTVYLQMNSLKPEDTAVFYGAATFIQVVVNGQLYDYDYWGQGTQVTVSS,low polyreactivity

row,Sequence,polyreactivity (PSR sort gate)
1,QVQLVESGGGLVQAGGSLRLSCAASGRTFRYYTMGWYRQAPGKERELVAAINDSGDITYYADSVKGRFTISRDNAKNTVSLQMNSLKPEDTAVYYCAASAAYYGFYKSVTYDYWGQGTQVTVSS,low polyreactivity
2,QVQLVESGGGLVQAGGSLRLSCAASGRTFRYYTMGWYRQAPGKERELVAAISRGGRTYYADSVKGRFTISRDNAKNTVYLQMNSLKPEDTAVYYCAAQLFREYYYWGQGTQVTVSS,high polyreactivity
3,QVQLVESGGGLVQAGGSLRLSCAASGRTFSANAMGWYRQAPGKERELVAGITSRGGGTYYADSVKGRFTISRDNAKNTVYLQMNSLKPEDTAVYYCAAPYNGGGVHSYWEYDYWGQGTQVTVSS,high polyreactivity
4,QVQLVESGGGLVQAGGSLRLSCAASGRTFSAYAMVWYRQAPGKERELVAAISRRGGSTYYADSVKGRFTISRDNAKNTVYLQMKSLKPEDTAVYYCAADVYKQYGYYFWGQGTQVTVSS,high polyreactivity
5,QVQLVESGGGLVQAGGSLRLSCAASGRTFSDYTMGWYRQAPGKERELFAAISGSVVNTYYADSVKGRFTISRDNAKNTVYLQMNSLKPEDTAVYYCAKDRIFYHYALYRWRVESYYWGQGTQVTVSS,low polyreactivity
6,QVQLVESGGGLVQAGGSLRLSCAASGRTFSEYAMGWYRQAPGKERELVAAITENGGSTYYADSVKGRFTISRDIAKNTVYLQMNSLKPEDTAVYYCAAETWADWYSEFYWGQGTLVTVSS,high polyreactivity
7,QVQLVESGGGLVQAGGSLRLSCAASGRTFSFNGMGWYRQAPGKERELVAAISRRGTSTYYADSVKGRFTISRDNAKNTVYLQMNSLKPEDTAVYYCAARSTYTRREYDYWGQGTQVTVSS,high polyreactivity
8,QVQLVESGGGLVQAGGSLRLSCAASGRTFSFYAMGWYRQAPGKERELVAAISRGGGSTYYADSVKGRFTISRDNAKNTVYLQMNSLKPEDTAVYYCAAPFLYRRGYDYWGQGTQVTVSS,high polyreactivity
9,QVQLVESGGGLVQAGGSLRLSCAASGRTFSFYAMGWYRQAPGKERELVAGIDWDDGSTSYADSVKGRFTISRDNAKNTVYLQMNSLKPEDTEVYYCAADIGYDVYNDYDYWGQGTQVTVSS,low polyreactivity
10,QVQLVESGGGLVQAGGSLRLSCAASGRTFSGNALGWSTHAPGKERELVAAITSSGGSTYYADSVKGRFTISRENAKNTVYLQMNSLKPEDTAVYYCNTDPQGRTVVYGGDDYWGQGTQVTVSS,low polyreactivity
11,QVQLVESGGGLVQAGGSLRLSCAASGRTFSGYAMGWYRPAPGKERELVAAITSGGNTYYADSVKGRFTISRDNAKNTVYFQMNILKPEDTAVYYCATVYADESGIEGYSWGQGTQVTVSS,low polyreactivity
12,QVQLVESGGGLVQAGGSLRLSCAASGRTFSGYAMGWYRQAPGKERELVAAIDRGDGTNYADSVKGRFTISRDNAKNTVYLQMNSLKPEDTAVYYCAADDYWTPFGYWGQGTQVTVSS,low polyreactivity
13,QVQLVESGGGLVQAGGSLRLSCAASGRTFSGYAMGWYRQAPGKERELVAAITRRGGTTYYADSVKGRFTISRDNAKNTVYLQMNSLKPEDTAVYYCAAAKPRVISQNIIYDYWGQGTQVTVSS,high polyreactivity
14,QVQLVESGGGLVQAGGSLRLSCAASGRTFSGYAMGWYRQAPGKERELVATITWSSGSTYYADSVKGRFTISRDNAKNTVYLQMNSLKPEDTAVYYCNADQGSALRWSYDYWGQGTQVTVSS,low polyreactivity
15,QVQLVESGGGLVQAGGSLRLSCAASGRTFSGYVMGWYRQAPAKERELVAAIARNGGSRYYADSVKGRFTISRDKAKNTVYLQMNSLTPEDTAVYYCAADASCWRRHYYWGQGTQVTVSS,high polyreactivity
16,QVQLVESGGGLVQAGGSLRLSCAASGRTFSHNAMGWYRQAPGKERELVATISWNGGRTYYADSVKGRFTISRDNAKNTVYLQMNSLKPEDTAVYYCADDRIWVLYRTYFSKYGYWGQGTQVTVSS,high polyreactivity
17,QVQLVESGGGLVQAGGSLRLSCAASGRTFSHYAMGWYRQAPGKVRELVADISWNGGRTYYADSVKGRFTISRDNAKNTVYLQMNSLKPEDTAVYYCAKVRYWAWSYEYWGQGTQVTVSS,high polyreactivity
18,QVQLVESGGGLVQAGGSLRLSCAASGRTFSIYVMGWYRQAPGKERELVAAITSGGRTYYADSVKGRFTISRDNAKNTVYLQMNSLKPEDTAGYYCAAGYWRPGQYYSRYNYWGQGTQVTVSS,high polyreactivity
19,QVQLVESGGGLVQAGGSLRLSCAASGRTFSKYAMGWYRQAPGKERELVAAISKRGDSTYYADSVKGRFTISRDNAKNTVYLQMNSLKPEDTAVYYCARDDYRAYKSYYRYGYWGQGTQVTVSS,low polyreactivity
20,QVQLVESGGGLVQAGGSLRLSCAASGRTFSKYAMGWYRQAPGKERELVAAISSTGGSTYYADSVKGRFTISRDNAKNTVYLQMNSLIPEDTAVYYCATEVYWFHSRAYYYWGQGSQVTVSS,high polyreactivity
21,QVQLVESGGGLVQAGGSLRLSCAASGRTFSKYAMGWYRQAPGKERELVASITRSGGSTNYADSVKGRFTISRDNAKNTVYLQINSLKPEDTAVYYCRRKLGRTHASGFDYWGQGTQVTVSS,low polyreactivity
